Data from the DeepSol protein solubility set.

test: soluble on expression in E. coli; label from the status in PepcDB or PDB records

Sequence | soluble on expression in E. coli
MYKLIDSAKFIMCVRSKRFRPDTLMDIFYLLNIQNMNCKKLFKTLLFIITTLVIVSCSKDDCDLDHIDKLQGLPALKAGTFPEEDLTLNVGEQYVYAPKASSPLDIYYQWYQNGEDMSTAPSFTFNAEHPGRSKVILELSNDLGKVTLENKVMVPGADYSKGCLIINEGWFGHGSGSISFYNYEKNSIEHWCYKNQNFGDVLGVTSQSATLWNGKLYVCSKEDNQLVVMDPKTLYAENSCGKLANYQAYEFIGLNDDYGIITHGGYFSRINLKTFETITLVSVGNTYTGTGSGIAYNGKLILNVNSSGWGSPKVYTIDIAELCSPDLKPTDKVAFQELDIATYGGTRFVQCKDGNIYTVETTKDGKNNLVRINADFSLKKVAMRDDYSPSSFGAYREASFCGTPEGIFYYIAGGKIYKATFDNPAPEETLTEYTKEGYGFYGAGIRVNPKTNELLAMYLTGDYQKNLLVRFNAATGEKISEIAYDGYYFPATFIFN | not soluble
MNKTELIKAIAQDTGLTQVSVSKMLASFEKIITETVAKGDKVQLTGFLNIKPVARQARKGFNPQTQEALEIAPSVGVSVKPGESLKKAAEGLKYEDFAK | soluble
MIFRSFFTHRIASMETKRLKLIPACLERAEEAHQAVVRSQKTLEVYLPWVPHVLTLEAMIEGTEKAIANFENFEEELRYYIIEK | not soluble
GPGSMPQSAVMNVMVQAAMKAGRSLVRDYGEVQNLQVSLKGPADYVSQADRKAEKIIFNELSKARPKFGFLMEESEEIIGEDSQHRFIVDPLDGTTNFLHGIPFFAVSIALESQGKIVAGVIYNPINDELFTAERGSGAFFNDRRCRVSARRRLEDCVIATGMPHLGRPGHGTYLIELRNVMAEVSGIRRFGTAALDLAYVAAGRTDGFWEDNLQIWDMAAGILMVREAGGFVTDKEGGNDIFRKKNIIAGNEHIRIKLERALKKGI | soluble
GPGSMRRFPPPPPTRTCAHERVKHAVPIPFRVTCFWPAMSAAPSEAFAEAETMEQLRLKGNACFADDPAEAAKYYTQAVQLYEERHGEDAACSLDEFTKSAGNALTCLFKMGETEQCAALAVRVLASNPILAKANAFYGRCALVDPSLDSVSTGFGTASAAALVHLCRAIYELPALEPNTRENIDEALTRLIGERVSVTETFARSPEAGVKLVRGQCGVGVEAIRTLPPLVEVVSLLTPFSVGAFEDFAGKGCCVECSKPIGLDVADAAAEEPNEDDGDEENDKDEGNVKATKEKPSTCTACNMVVYCSPACADAHREQHERFECARMTRLSDMMQGIEARKLDVPEQFFELAYHCITTLAGIKAKRAGHERVLTLTAHVDEVIQSLHPIGPLMCDLFKGEERPATLYTIIGVLCCNALELADPSGLGVAQALHAGNSIASFFNHSCTPNCAIDTVRHAIVTTRTIHVGEELSIAYIPQLYWPTRLRRERLSESYYFVCRCQRCESSNKDPFERALSMELPTARREATKHFHPIVQTTCATVRSRMVGDVSQKDADELSKLLRELSTHLFPFHYLCHEVRNCLSFVYAVLGQTRECLCSCLDELLMWECILPGALPVKRMKIENALQCVQGFGANVSDCSAALLPHLSRLALVYDAEGPI | not soluble
MNKTPRVGFVSLGCPKAASDSEQILTRLRAEGYEIAPSYDGADLVVVNTCGFIDSAVEESLDAIGEALNENGKVIVTGCLGAKGDVVRDVHPSVLAVTGPHATEEVMSAVHTHLPKPHDPFVDLVPDIGVRLTPKHYAYLKISEGCNHRCTFCIIPSMRGDLESRPIHDVLREAESLAKAGVKEILVISQDTSAYGVDTKYKLGFHNGRPVKTRMTELCEELGRHGIWVRLHYVYPYPHVDEVIPLMRDGKILPYLDIPFQHASQKVLKLMKRPANSDNVLARIKKWREICPELVIRSTFIVGFPGETEEDFEELLAFIREAELDRVGCFTYSPVEGATANELPNPVPEDVKEARKERFMAVQAEISARRLERRVGQTLQVLVDEIDDEGTAVCRSYADAPEIDGLVFVEDAAGMQPGEFYQVEIVDCSEHDLWGERRLEHHHHHH | soluble
MSLAIRVVCISDTHDLKVDIPRGDILIHAGDLTDGGTVSDIQKQLDWLKEQPHPIKVVVAGNHDSWFDQKSRPEEDARSGAKPDMDGLIYLESGLTVQKVKGRTVNIFGVPDIPEIGPKEFAFQYATDNHPWLSKVPPQTDILVTHCPPKHHLDLGLGDSNLLREVWRVKPRLHVFGHVHCAYGKESVFFDNFQQTYERIMSRPRRGPILDFIPNEAWLDEGHHHHHH | not soluble
MNFNGSLFERLADKTQKKTDLNEEERITASIATHLAKLLGTRAGSVNTLPDYGLPELNNASLSAHDTVRQSRLAIEKAIRDYEPRLSEVHVMSDESSWCVLKRTFSIDASLDMNGVKKTVVFSIAVAGDGHVILN | not soluble
DSDDRVTPPAEPLDRMPDPYRPSYGRAETVVNNYIRKWQQVYSHRDGRKQQMTEEQREWLSYGCVGVTWVNSGQYPTNRLAFASFDEDRFKNELKNGRPRSGETRAEFEGRVAKESFDEEKGFQRAREVASVMNRALENAHDESAYLDNLKKELANGNDALRNEDARSPFYSALRNTPSFKERNGGNHDPSRMKAVIYSKHFWSGQDRSSSADKRKYGDPDAFRPAPGTGLVDMSRDRNIPRSPTSPGEGFVNFDYGWFGAQTEADADKTVWTHGNHYHAPNGSLGAMHVYESKFRNWSEGYSDFDRGAYVITFIPKSWNTAPDKVKQGWP | soluble
MSLVPQGGPVLCRDEMEEWSASEAMLFEEALEKYGKDFNDIRQDFLPWKSLASIVQFYYMWKTTDRYIQQKRLKAAEAEGHHHHHH | not soluble
QRLKVEDALSYLDQVKLQFGSQPQVYNDFLDIMKEFKSQSIDTPGVISRVSQLFKGHPDLIMGFNTFLPPG | soluble
MKALRSSSRLSRWREWAAPLWVGCNFSAWMRLLIRNRFAVHHSRWHFAVLYTFLSMVNSCLGLWQKIVFGRRVAETVIADPPIFIVGHWRTGTTLLHELLVVDDRHTGPTGYECLAPHHFLLTEWFAPYVEFLVSKHRAMDNMDLSLHHPQEDEFVWCMQGLPSPYLTIAFPNRPPQYEEYLDLEQVAPRELEIWKRTLFRFVQQVYFRRRKTVILKNPTHSFRIKVLLEVFPQAKFIHIVRDPYVVYPSTIHLHKALYRIHGLQQPTFDGLDDKVVSTYVDLYRKLDEGRELVDPTRFYELRYEDLIGDPEGQLRRLYQHLGLGDFECYLPRLRQYLADHADYKTNSYQLTVEQRAIVDEHWGEIIDRYGYDRHTPEPARLRPAVGG | not soluble
DAHSLWYNFTIIHLPRHGQQWCEVQSQVDQKNFLSYDCGSDKVLSMGHLEEQLYATDAWGKQLEMLREVGQRLRLELADTELEDFTPSGPLTLQVRMSCECEADGYIRGSWQFSFDGRKFLLFDSNNRKWTVVHAGARRMKEKWEKDSGLTTFFKMVSMRDCKSWLRDFLMHRKKRLE | soluble
MDALSRLLTLNAPQGSIDKNCPLGGDWQLPHAAGELSVIRWHTVTQGEAQLEMPTGDAMTLTPGKVVILPQNSAHRLRQSGESPTHIVCGSLRLHTTSRYFLTALPEVLCLAPPPHSPASIWINATILLLQQESERHLPGADVLYSQQCATLFTLAVRDWLSQAGTAKSVLNLLLHPRLGRVILHMLETPAHPWTVETLAQRVHMSRASFAQLFRDVSATTPLAVLTTLRLQIAAQTLSREVLPVMVIAESVGYASESSFHKAFVREFGCTPGEYRKRVSALGR | not soluble
MVAGGFGVGKTTLIGSVSEVRPLRMEEPITQASAGVDDLRGTPHKTTTTVAMDFGRIHMAGGRLALYLFGLPGQSRFQPLWEDLAEGALGCLVLADTRDLDASHDALGLLDGAGIPYAVAINTFPGSPSYPEAELREALALEPATPLTYCDARDRTSSLHALITLTEYLSEHRSAALLESRRLEHHHHHH | not soluble
MLTYGAPFNFPRWIDEHAHLLKPPVGNRQVWQDSDFIVTVVGGPNHRTDYHDDPLEEFFYQLRGNAYLNLWVDGRRERADLKEGDIFLLPPHVRHSPQRPEAGSACLVIERQRPAGMLDGFEWYCDACGHLVHRVEVQLKSIVTDLPPLFESFYASEDKRRCPHCGQVHPGRAA | soluble
MWNAGRETSSPGTELSENQAKKEKERLIKELQLITEERNDLRDRLRFLTERSMKNRSHFRPNPYYEDLERMEEAVMSILHNLEMENTEVHENNHKLKKEITFSR | soluble
MSLNYSHAFHAGNHADVLKHIVLLALLDGLVRKETPFFVLDSHAGRGRYLLSAGESRNTREAESGVMRLIARPQRLEVIKRYVDVVQADNVSQTRAASTPMHISRYPGSSLLAAQVCRAQDRMVFCELHPKEAAALNALFVHDPRVRVHAGDGYAAVRAFLPPKVGTQRIGRGLVFIDPPYEAQDAEYPLVLGALRETLTRWPQAICAVWYPIKQRRRLQPFFRKAVGLPVRSVLIAELLVRLDDSPLRLNGSGMLLLNVPWQFDQLLAPALPVLKTQLGESGARTRLEWLKVPQEGHHHHHH | not soluble
MNTESSPFVFNVGTLVRGSAVPASVQQTGPSPVRIGPAMIAIPENGDVTVNATITPLGDALMVDADVSAELSGECVRCLQHMAPRAQFHVNEVFALTEDFITGDDGDGEDDDVTVITGDTVDILQAVIDEAGMSLPFNPQCEGGCVQSDSDVPEPDGIAGETELVDPRWAGLEKFL | not soluble
HMSSLQRASVSFNKPGHIPFGAVQGYAPGGVPAYSNKHDHYFSGERNIEDNIFFGFKYQCVEFARRWLLVRKGLLLPDVNWACHIFQLKEVRDAATTESFAVLQVRNGTTTKPEADALLVYPSTDANPVGHVGTITEVGDDYVCVADQNYRFHKWESSCAYKLKLDHRDGIWTIIDDIDADEIEIPLGWLTFPGRANRPEGAPPVALHPSLHFKEPPKPYLLRRNFLPTESKANWLDMNNPAERLFVEEFGMDVSRTRLEEKVVSYYESNHEFHLRCVAYGTQLHAIFMEATAQVIESDEKLRLFAIPEEFWPRIRHSWKYQQTYISGRFDFAFNNETGEVKCFEYNADSASTLLECGLIQQKWAESVGLDKQDTRGSGFAVERNLKMAWANSGATGRVHFCVDEEREEQYTALYCMQAAEAVGLEGKLCILFDEFRFDDNGHVVDSDGVRVRNVWKTWMWESAITDYYAAREERGENWKPSPKDKVRLCDLLLGDDWEILYFEPMWKVIPSNKAILPMIYHNHPEHPAILKAEYELTDELRKHGYAKKPIVGRVGSNVIITSGDGVVHAESGGKYGKRNMIYQQLFELKKQDDYYAIIGGWMIGDAFSGTGIREDKSVITGVDSPFAAVRIKTDKLPHPVTLKDIDKMAEDE | soluble
MIDKSGYRANVAIVLLNKQNRVFWGQRRNRTSWQFPQGGVATGETPLQAMYRELHEEIGLRPQDVEVIASTRDWYKYDIPDSLVRTKEPICIGQKQKWFLLKLKSPESYIDLDANDSPEFDNWRWVSYWYPINHVVYFKQEVYRKALTYFKEYIA | not soluble
MGSDKIHHHHHHMNNYNDTIRNLDNIVYKPNNLMITNVKEEKQNAEYAGCIFHLNNKTIRFRKSKITPNKIGQFVSFWEKGDNMQNQAFSYNAAPDLLVITCIDDNKLGQFIFPKEILLKEKILRTENQKGKMAMRIYPIWDTPVSNQAKKSQLWQIQYFVDLSNHNNLTIDELLNLYS | not soluble
MYSPQTFFLQEVKGQKPDGLGGLIDDWGLFKEVSGYIDLVTGTDETTKQNAFVEESTHILIIPEFIEGITDNMRVVDQTNRYYDITYSDNPVGIKHHNEIYLKFEGVLSGEE | not soluble
